Source: patent US20210292396A1

What was measured:
Assay in all cases: cell-based or functional assay
[1] = molecular target: Env of HIV isolate A07412M1.vrc12 (clade D) (HIV)
[2] = molecular target: HIV Env of isolate 271-11 (HIV)
[3] = molecular target: HIV Env of isolate CNE8 (HIV)
[4] = molecular target: HIV Env of isolate 6838.v1.c35 (HIV)
[5] = molecular target: HIV Env of isolate TV1.29 (HIV)
[6] = molecular target: Env of HIV isolate 0815.v3.c3 (clade ACD) (HIV)
[7] = molecular target: HIV Env of isolate ADA.DG (HIV)
[8] = molecular target: Env of HIV isolate CNE5 (clade AE) (HIV)
[9] = molecular target: HIV Env of isolate ZM109.4 (HIV)
[10] = molecular target: Env of HIV isolate ZM214.15 (clade C) (HIV)
[11] = molecular target: Env of HIV isolate C4118.09 (clade AE) (HIV)
[12] = molecular target: HIV Env of isolate HT593.1 (HIV)
[13] = molecular target: HIV Env of isolate 6785.v5.c14 (HIV)
[14] = molecular target: HIV Env of isolate P0402.c2.11 (HIV)
[15] = molecular target: HIV Env of isolate CNE7 (HIV)
[16] = molecular target: HIV Env of isolate CNE20 (HIV)
[17] = molecular target: Env of HIV isolate Bal.01 (clade B) (HIV)
[18] = molecular target: Env of HIV isolate CNE14 (clade B) (HIV)
[19] = molecular target: HIV Env of isolate CNE40 (HIV)
[20] = molecular target: Env of HIV isolate 3873.v1.c24 (clade C) (HIV)
[21] = molecular target: Env of HIV isolate Ce1176.A3 (clade C) (HIV)
[22] = molecular target: Env of HIV isolate 6785.v5.c14 (clade C) (HIV)
[23] = molecular target: Env of HIV isolate 6535.3 (clade B) (HIV)
[24] = molecular target: Env of HIV isolate T251-18 (clade AG) (HIV)
[25] = molecular target: Env of HIV isolate ZM249.1 (clade C) (HIV)
[26] = molecular target: Env of HIV isolate HXB2.DG (clade B) (HIV)
[27] = molecular target: Envelope protein of SIVmac251.30.SG3 (clade NA)
[28] = molecular target: HIV Env of isolate 3301.v1.c24 (HIV)
[29] = molecular target: Env of HIV isolate NKU3006.ec1 (clade D) (HIV)
[30] = molecular target: Env of HIV isolate CNE21 (clade BC) (HIV)
[31] = molecular target: HIV Env of isolate ZM135.10a (HIV)
[32] = molecular target: Env of HIV isolate 0260.v5.c36 (clade A) (HIV)
[33] = molecular target: Env of HIV isolate CAAN.A2 (clade B) (HIV)
[34] = molecular target: Env of HIV isolate 3168.v4.c10 (clade C) (HIV)
[35] = molecular target: HIV Env of isolate CH181.12 (HIV)
[36] = molecular target: Env of HIV isolate 246-F3.C10.2 (clade AC) (HIV)
[37] = molecular target: HIV Env of isolate Ce1176.A3 (HIV)
[38] = molecular target: HIV Env of isolate TH023.6 (HIV)
[39] = molecular target: Env of HIV isolate TH976.17 (clade AE) (HIV)
[40] = molecular target: HIV Env of isolate CAP256.206.C9 (HIV)
[41] = molecular target: HIV Env of isolate UG024.2 (HIV)
[42] = molecular target: HIV Env of isolate NKU3006.ec1 (HIV)
[43] = molecular target: Env of HIV isolate X2088.c9 (clade G) (HIV)
[44] = molecular target: HIV Env of isolate T33-7 (HIV)
[45] = molecular target: Env of HIV isolate 3016.v5.c45 (clade D) (HIV)
[46] = molecular target: Env of HIV isolate CE703010217.B6 (clade C) (HIV)
[47] = molecular target: HIV Env of isolate TRO.11 (HIV)
[48] = molecular target: Env of HIV isolate BB201.B42 (clade A) (HIV)
[49] = molecular target: HIV Env of isolate 3873.v1.c24 (HIV)
[50] = molecular target: HIV Env of isolate 231965.c01 (HIV)
[51] = molecular target: Env of HIV isolate CNE3 (clade AE) (HIV)
[52] = molecular target: Env of HIV isolate 96ZM651.02 (clade C) (HIV)
[53] = molecular target: Env of HIV isolate UG024.2 (clade D) (HIV)

**Q.** How did the IC50, pseudovirus neutralization [1] turn out when PGT121 (antibody) was run?
**A.** Its IC50, pseudovirus neutralization is 0.042 µg/mL.

**Q.** What about the IC80 [2] of the same substance?
**A.** The IC80 was over 50 µg/mL.

**Q.** And the IC80 [3]?
**A.** Its IC80 is over 50 µg/mL.

**Q.** And the IC80, pseudovirus neutralization [4]?
**A.** The IC80, pseudovirus neutralization was 0.21 µg/mL.

**Q.** And the IC80, pseudovirus neutralization [5]?
**A.** The IC80, pseudovirus neutralization was 0.438 µg/mL.

**Q.** And the IC50, pseudovirus neutralization [6]?
**A.** Its IC50, pseudovirus neutralization is 0.0323 µg/mL.

**Q.** What about the IC80 [7] of the same substance?
**A.** Its IC80 is 0.109 µg/mL.

**Q.** What about the IC50, pseudovirus neutralization [8] of the same substance?
**A.** The IC50, pseudovirus neutralization was over 50 µg/mL.

**Q.** What about the IC80, pseudovirus neutralization [9] of the same substance?
**A.** The IC80, pseudovirus neutralization was over 50 µg/mL.

**Q.** What about the IC50, pseudovirus neutralization [10] of the same substance?
**A.** Its IC50, pseudovirus neutralization is 0.392 µg/mL.

**Q.** And the IC50, pseudovirus neutralization [11]?
**A.** The IC50, pseudovirus neutralization was over 50 µg/mL.

**Q.** What about the IC80 [12] of the same substance?
**A.** Its IC80 is over 50 µg/mL.

**Q.** And the IC80, pseudovirus neutralization [13]?
**A.** The IC80, pseudovirus neutralization was 0.108 µg/mL.

**Q.** What about the IC80, pseudovirus neutralization [14] of the same substance?
**A.** The IC80, pseudovirus neutralization was 0.0297 µg/mL.

**Q.** What about the IC80, pseudovirus neutralization [15] of the same substance?
**A.** The IC80, pseudovirus neutralization was 0.121 µg/mL.

**Q.** What about the IC80, pseudovirus neutralization [16] of the same substance?
**A.** Its IC80, pseudovirus neutralization is 0.0127 µg/mL.

**Q.** And the IC50, pseudovirus neutralization [17]?
**A.** Its IC50, pseudovirus neutralization is 0.0113 µg/mL.

**Q.** And the IC50, pseudovirus neutralization [18]?
**A.** Its IC50, pseudovirus neutralization is 0.0103 µg/mL.

**Q.** What about the IC80, pseudovirus neutralization [19] of the same substance?
**A.** The IC80, pseudovirus neutralization was 1.21 µg/mL.

**Q.** What about the IC50, pseudovirus neutralization [20] of the same substance?
**A.** Its IC50, pseudovirus neutralization is 0.045 µg/mL.

**Q.** What about the IC50, pseudovirus neutralization [21] of the same substance?
**A.** The IC50, pseudovirus neutralization was 0.0243 µg/mL.

**Q.** What about the IC50, pseudovirus neutralization [22] of the same substance?
**A.** Its IC50, pseudovirus neutralization is 0.0503 µg/mL.

**Q.** What about the IC50, pseudovirus neutralization [23] of the same substance?
**A.** The IC50, pseudovirus neutralization was 0.00633 µg/mL.

**Q.** And the IC50, pseudovirus neutralization [24]?
**A.** The IC50, pseudovirus neutralization was 3.05 µg/mL.

**Q.** And the IC50, pseudovirus neutralization [25]?
**A.** The IC50, pseudovirus neutralization was over 50 µg/mL.

**Q.** And the IC50, pseudovirus neutralization [26]?
**A.** The IC50, pseudovirus neutralization was over 50 µg/mL.

**Q.** And the IC50, pseudovirus neutralization [27]?
**A.** Its IC50, pseudovirus neutralization is over 50 µg/mL.

**Q.** And the IC80 [28]?
**A.** Its IC80 is 0.05 µg/mL.

**Q.** What about the IC50, pseudovirus neutralization [29] of the same substance?
**A.** Its IC50, pseudovirus neutralization is over 50 µg/mL.

**Q.** And the IC50, pseudovirus neutralization [30]?
**A.** The IC50, pseudovirus neutralization was 0.0143 µg/mL.

**Q.** What about the IC80, pseudovirus neutralization [31] of the same substance?
**A.** The IC80, pseudovirus neutralization was 3.69 µg/mL.

**Q.** What about the IC50, pseudovirus neutralization [32] of the same substance?
**A.** Its IC50, pseudovirus neutralization is 0.0587 µg/mL.

**Q.** What about the IC50, pseudovirus neutralization [33] of the same substance?
**A.** The IC50, pseudovirus neutralization was 0.0193 µg/mL.

**Q.** And the IC50, pseudovirus neutralization [34]?
**A.** Its IC50, pseudovirus neutralization is 0.446 µg/mL.

**Q.** What about the IC80, pseudovirus neutralization [35] of the same substance?
**A.** The IC80, pseudovirus neutralization was 0.083 µg/mL.

**Q.** And the IC50, pseudovirus neutralization [36]?
**A.** The IC50, pseudovirus neutralization was over 50 µg/mL.

**Q.** And the IC80, pseudovirus neutralization [37]?
**A.** Its IC80, pseudovirus neutralization is 0.066 µg/mL.

**Q.** What about the IC80 [38] of the same substance?
**A.** Its IC80 is over 50 µg/mL.

**Q.** What about the IC50, pseudovirus neutralization [39] of the same substance?
**A.** The IC50, pseudovirus neutralization was over 50 µg/mL.

**Q.** What about the IC80, pseudovirus neutralization [40] of the same substance?
**A.** Its IC80, pseudovirus neutralization is 0.046 µg/mL.

**Q.** And the IC80, pseudovirus neutralization [41]?
**A.** The IC80, pseudovirus neutralization was over 50 µg/mL.

**Q.** And the IC80, pseudovirus neutralization [42]?
**A.** Its IC80, pseudovirus neutralization is over 50 µg/mL.

**Q.** What about the IC50, pseudovirus neutralization [43] of the same substance?
**A.** Its IC50, pseudovirus neutralization is 0.00633 µg/mL.

**Q.** What about the IC80 [44] of the same substance?
**A.** Its IC80 is over 50 µg/mL.

**Q.** And the IC50, pseudovirus neutralization [45]?
**A.** Its IC50, pseudovirus neutralization is over 50 µg/mL.

**Q.** What about the IC50, pseudovirus neutralization [46] of the same substance?
**A.** Its IC50, pseudovirus neutralization is 0.007 µg/mL.

**Q.** And the IC80 [47]?
**A.** The IC80 was 0.0583 µg/mL.

**Q.** And the IC50, pseudovirus neutralization [48]?
**A.** The IC50, pseudovirus neutralization was 0.00933 µg/mL.

**Q.** And the IC80, pseudovirus neutralization [49]?
**A.** The IC80, pseudovirus neutralization was 0.113 µg/mL.

**Q.** What about the IC80, pseudovirus neutralization [50] of the same substance?
**A.** Its IC80, pseudovirus neutralization is over 50 µg/mL.

**Q.** What about the IC50, pseudovirus neutralization [51] of the same substance?
**A.** The IC50, pseudovirus neutralization was over 50 µg/mL.

**Q.** What about the IC50, pseudovirus neutralization [52] of the same substance?
**A.** The IC50, pseudovirus neutralization was 0.0213 µg/mL.

**Q.** And the IC50, pseudovirus neutralization [53]?
**A.** The IC50, pseudovirus neutralization was over 50 µg/mL.
